Molecular target: RIPK3 (UniProt Q9Y572)
Assay: anti-Flag co-IP, Myc blot
Conditions: reference: wild-type Myc-CSNK1G2; sites S211,T215

binding against the reference: lost
Substance: CSNK1G2 (from UniProt P78368) S211A/T215A

— article PMC7673785
